Assay results published in article PMC10017804.

Target: photosystem II (PSII) complex of Porphyridium purpureum (P. purpureum (endogenous in P. purpureum cells))
Assay: cryo-EM structure; in situ, single cryo-EM images (no tilt series) of FIB-milled P. purpureum cellular lamellae; particles localized by GisSPA, then 3D classification and local refinement

stoichiometry N: 4
Substance: photosystem II (PSII) complex of Porphyridium purpureum
